Target: T1, mouse interleukin 11 receptor alpha chain 1 (mouse, UniProt Q64385 24-372)
T1 sequence (looked up): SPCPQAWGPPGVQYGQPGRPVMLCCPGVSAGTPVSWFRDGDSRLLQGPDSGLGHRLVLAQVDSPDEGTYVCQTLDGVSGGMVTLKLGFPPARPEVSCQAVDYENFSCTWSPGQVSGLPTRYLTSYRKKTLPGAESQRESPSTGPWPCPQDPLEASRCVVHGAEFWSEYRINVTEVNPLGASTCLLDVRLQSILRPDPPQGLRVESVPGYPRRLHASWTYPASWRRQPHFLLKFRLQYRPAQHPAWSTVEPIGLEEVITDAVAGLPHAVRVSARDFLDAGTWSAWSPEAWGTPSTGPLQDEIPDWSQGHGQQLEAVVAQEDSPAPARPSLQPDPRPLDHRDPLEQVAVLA
Experiment: SPR

B1: recombinant human interleukin 11 (ligand, UniProt P20809 22-199, looked up)
chain: PGPPPGPPRVSPDPRAELDSTVLLTRSLLADTRQLAAQLRDKFPADGDHNLDSLPTLAMSAGALGALQLPGVLTRLRADLLSYLRHVQWLRRAGGSSLKTLEPELGTLQARLDRLLRRLQLLMSRLALPQPPPDPPAPPLAPPSSAWGGIRAAHAILGGLHLTLDWAVRGLLLLKTRL
- Kd: 0.072 µM

B2: recombinant mouse IL11 (ligand, UniProt P47873 22-199, looked up)
chain: PGPPAGSPRVSSDPRADLDSAVLLTRSLLADTRQLAAQMRDKFPADGDHSLDSLPTLAMSAGTLGSLQLPGVLTRLRVDLMSYLRHVQWLRRAGGPSLKTLEPELGALQARLERLLRRLQLLMSRLALPQAAPDQPVIPLGPPASAWGSIRAAHAILGGLHLTLDWAVRGLLLLKTRL
- Kd: 0.094 µM

Reference: article doi:10.1101/830018 (bioRxiv, 2019)
